# Assay results as given in patent US20130273143A1 (UNIVERSITY OF CINCINNATI, published 2013).
# B1: Heat-Shock Protein Hsp20 (other, mouse, UniProt Q5EBG6 1-162, looked up)
# chain: MEIPVPVQPSWLRRASAPLPGFSAPGRLFDQRFGEGLLEAELASLCPAAIAPYYLRAPSVALPTAQVSTDSGYFSVLLDVKHFLPEEISVKVVDDHVEVHARHEERPDEHGFIAREFHRRYRLPPGVDPAAVTSALSPEGVLSIQATPASAQAQLPSPPAAK
# notes: Endogenous protein from wild-type mouse heart homogenate, used in co-immunoprecipitation; also called mcHsp20
# Target: T1, Bcl-2 (mouse, UniProt P10417 1-236)
# T1 construct: Endogenous protein from wild-type mouse heart homogenate
# T1 sequence (P10417 whole entry): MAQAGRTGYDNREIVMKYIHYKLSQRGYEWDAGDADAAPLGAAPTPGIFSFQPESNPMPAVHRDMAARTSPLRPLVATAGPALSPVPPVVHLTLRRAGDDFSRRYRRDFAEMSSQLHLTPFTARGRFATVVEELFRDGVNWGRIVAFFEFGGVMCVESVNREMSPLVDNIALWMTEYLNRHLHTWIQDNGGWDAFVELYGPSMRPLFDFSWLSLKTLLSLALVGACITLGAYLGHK
# Assay: co-immunoprecipitation from WT mouse heart homogenate with anti-Hsp20 antibody, immunoblot with anti-Bcl-2
# From the text: Mouse heart homogenates are immunoprecipitated with anti-Hsp20 (d) or anti-Bax antibodies (e). Proteins are separated on SDS-PAGE gels and probed with anti-Bax (d1) or anti-Hsp20 antibodies (e1). Then, membrane (d1) is stripped and re-probed with anti-Bcl-2(d2); subsequently, this membrane (d2) is re-stripped and re-probed with anti-Hsp20 (d3). Similarly, membrane (e1) is stripped and re-probed with anti-Bax antibodies (e2). […] Homogenates are obtained from pre-ischemic/reperfused (g and i) and post-ischemic/reperfused (h and j) WT and TG hearts that are subjected to occlusion of LAD artery for 30 minutes and reperfusion for 24 hours. Homogenates are extracted by use of a solubilization solution of 7 mol/L urea, 2 mol/L thiourea, 4% CHAPS, 20 mmol/L DTT, 20 mmol/L spermine, and 1 mmol/L PMSF. Extract is centrifuged (100 000 g, 1 hour, at 10° C.), and 500 μg from each preparation is separated by 2D electrophoresis, using isoelectric focusing strips (Immobiline Drystrips, 18 cm, pH 4 to 7). […]
# Association of Hsp20 with Bax and Bcl-2 is studied using Dynabeads Protein G (Dynal Biotech) according to the manufacturer's instructions. […] Finally, the proteins are eluted off (using 0.1 mol/L citrate), and their identity is determined by immunoblotting.
binder,measurement,value
B1,binding result,no binding
